Literature values in paper PMC11271873.

How the values were obtained:
Conditions in all cases: free peptide
[1] = system: Cterm (position 3, ---KKK-----)
[2] = system: Nterm (position 1, -----KKK---)
[3] = system: Nterm (position 1, -----KK----)
[4] = system: Cterm (position 2, ----KK-----)

Substance | pKa [1] | pKa [2] | pKa [3] | pKa [4]
Lys-Lys-Lys (tri-lysine) (synthetic) | 3,08 | 7,34 | – | –
Lys-Lys (di-lysine) (synthetic) | – | – | 7,53 | 3,01
